Results reported in the RNAGym collection of RNA variant scans (doi:10.1073/pnas.2313332121).

B1: TPR t1 (parent)
chain: GACCAAUCUGCCCUCAGAGCUCGAGAACAUCUUCGGAUGCAGAGGAGGCAGGCUUCGGUGGCGCGAUAGCGCCAACGUCCUCAACCUCCAAUGCAUCCCACCACAUGAUGAUGCCUGAAGAGCCUUGGUUUUUUG

Variants of: B1
Experiment: polymerase ribozyme fitness, log enrichment relative to wild type (log ratio); higher = more active; in vitro selection for triplet polymerase activity
Method in brief: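 Input and output libraries were sequenced on Illumina after a single in vitro selection round, run in triplicate on PCR-built, transcribed mutant libraries of each subunit of a heterodimeric triplet polymerase ribozyme. Selection annealed libraries to a biotinylated primer, the partner subunit and triplets, incubated them frozen at −7 °C, then gel-excised extended constructs for streptavidin-bead capture and RT-PCR. Genotypes with ≥10 input reads and ≥1 read per output were kept. Fitness is the logarithm, taken in base 2, of genotype enrichment divided by wild-type enrichment, using inverse-variance-weighted replicate averages.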

In order of falling “polymerase ribozyme fitness (log ratio)” value:
1. C8A U112C A121G  2.38
2. C8G C11U C124A  2.24
3. C8G C11U G120A  2.17
4. C8G C124G  1.92
5. C8G C73A  1.91
6. C8A G120A  1.88
7. C8G C115A U130G  1.67
8. C8G G61A U87G C123A  1.64
9. C8G G39U C123U  1.42
10. C8G C56A U78C G93A C123U  1.31
11. C8A G58C U112C A121G  1.27
12. C8A U112A C123A  1.22
13. C8G G48A G120C U125C  1.03
14. C8G C15U U54G G117C  0.947
15. C8G C64U  0.927
16. C8G A74C  0.88
17. C8G C12U G63A G122A C123U  0.85
18. C8G C13G U54C  0.758
19. C8G A37G G71A  0.737
20. C8G G69U  0.724
21. C8G A46G  0.594
22. C8G C82A G117U  0.587
23. C8G C12G U55G G61U  0.571
24. C8G G122A  0.556
25. C8G A29U G120U  0.42
26. C8G C56A  0.399
27. C8G C13G G36A C72U U78A A111C  0.397
28. C8G C72A  0.366
29. C8A G122A  0.24
30. C8A G71A  0.22
31. C8G C53U  0.216
32. C8G G44C G60A  0.198
33. C8G G71U  0.189
34. C8G G44C C49A C123G  0.185
35. C8G C13U G45C A84C  0.0875
36. C8G G71A  0.0703
37. C8G C73G  0.0346
38. C8A U9G U87A  0.00649
39. C8G C13U A16U G71A  -0.033
40. C8G A37U G44A G60C C115A  -0.0408
41. C8G A50C C73U G93A  -0.0523
42. C8G G71C  -0.095
43. C8G A50U  -0.104
44. C8G G44U  -0.116
45. C8G C88A  -0.193
46. C8A G93A  -0.248
47. C8G C11G U96A  -0.26
48. C8A G110A  -0.267
49. C8G A46U G63C  -0.288
50. C8G G36A A74U A90G  -0.292
51. C8G G48U G58C G60U U125G  -0.353
52. C8G A41G C53G G93U  -0.406
53. C8A G48C  -0.457
54. C8G C15U C70U  -0.473
55. C8A G63A A83C C86U  -0.491
56. C8G C89U  -0.514
57. C8G C62U C86G G117A A119U  -0.52
58. C8G C12G G44C U96A  -0.546
59. C8G G48U G61U G93U U112A C124A  -0.568
60. C8A G61U G117U A119U C123U  -0.671
61. C8G G52U G60A U96G  -0.693
62. C8G A100U U106A U116A  -0.749
63. C8G C20A A84C C124U  -0.801
64. C8G C102U U106C  -0.803
65. C8G G135U  -0.819
66. C8G C12G A46U  -0.837
67. C8G A50U U54C U106A G117A  -0.842
68. C8G G10A A16C A95U G122U  -0.858
69. C8A G63A  -0.863
70. C8G G48U G93U U112A C124A  -0.874
71. C8G C79A  -0.929
72. C8G G36U U54C A91C C124A  -0.94
73. C8G G71A C73A C94U C104U  -1.01
74. C8A G48U C53A C62U C82U U106A A108G  -1.01
75. C8G C49A U92A C123U  -1.03
76. C8G G69U G107U G113A  -1.04
77. C8G A29U U55G C56A C94U C124A  -1.05
78. C8G C20U G69U C101U  -1.07
79. C8G G52C C62U C89U  -1.08
80. C8G A50G G63A U112A G122A  -1.09
81. C8G G63C  -1.11
82. C8G C20U C49U  -1.11
83. C8A G69C  -1.13
84. C8G G58A C70U U96A  -1.13
85. C8G G19A G69U C79U A111G U129C U133A  -1.15
86. C8G C13A C85U G135U  -1.16
87. C8G G71A C82U C101A  -1.2
88. C8G G113U  -1.24
89. C8A U21G  -1.24
90. C8G G69C G113A  -1.36
91. C8G C79G G117U  -1.37
92. C8G C97U C102U  -1.4
93. C8G C49G C89G  -1.42
94. C8A U54G A105G U112A C123G C124A U132C  -1.56
95. C8A G48U C53A C82U U106A A108G  -1.56
96. C8A G113C  -1.59
97. C8G G45U G63C A83U A91C U112A  -1.6
98. C8G A16C C62U C94A U112G U130C  -1.66
99. C8G C13G A16U C49A C70U U129C  -1.75
100. C8G C15A C20U C56A G57U  -1.84
101. C8A U14A C101G  -1.85
102. C8G G63C G117C C124A  -1.86
103. C8G C20A C72U G77A  -1.87
104. C8G G47C C85G  -1.92
105. C8G C28G  -2.05
106. C8A G117C  -2.07
107. C8G G19U G71A G113A U130C  -2.08
108. C8G A18C G39C U133G  -2.2
109. C8A U9G C85G C89A U126G G127C  -2.22
110. C8G A46U A91U G117C  -2.28
111. C8G C20U G52U C62A  -2.37
112. C8G C15U G19A U125A  -2.55
113. C8G A24G C124U U126G  -2.55
114. C8A U38A G42U G45A  -2.61
115. C8A U130G U132A  -2.74
116. C8G C49G A50U C79U U131C  -2.75
117. C8G C62U C99U  -2.93
118. C8A G48C C49U C62A C94A  -3.22
119. C8G C28A  -3.24
120. C8G C97G  -3.25
121. C8G C22U C53A C101A A121G C124A  -3.25
122. C8G C101G G128U  -3.26
123. C8G C56A G77U C88G U92A G113C G122A C123G  -3.34
124. C8G C13A A18G C53A C88A U125G  -3.4
125. C8G G107U G113A  -3.41
126. C8G U9G C28G G42U G48U U55A C104U G120C  -3.54
127. C8A G51C C73U C94U U130G  -3.59
128. C8A G110C  -3.59
129. C8G G19A C76A  -3.65
130. C8G A18U U21A C73U G93A  -3.79
131. C8G C20U U32G C56G G113A U125G  -3.85
132. C8G G35U C123A  -3.92
133. C8G C11U U21C C34U  -3.99
134. C8G C89A A105C  -4.02
135. C8G G17U U81A U87C U96C G113A  -4.04
136. C8A G63U G77C G117C  -4.17
137. C8G G36A G44A C70G  -4.2
138. C8G A18U G45A C79U A100U A103C C114U  -4.29
139. C8G C98G U132C  -4.39
140. C8G C11G C53U C62U U81G C102A  -4.4
141. C8G C28A C72A  -4.41
142. C8G C80A A90U G128C U129G  -4.56
143. C8G C11G C56A C62G C85U  -4.61
144. C8G A46G G107A  -4.69
145. C8G C20G G44U  -4.75
146. C8G A43U U54C C114A A118G  -4.79
147. C8A G57U A66G C76U A90U  -4.82
148. C8A G52A C98A  -4.9
149. C8A G69C G110C  -4.93
150. C8G A43C A50U C115U G127U  -4.94
151. C8G G35C C89U  -4.98
152. C8G C28G C97A U106A C115U U133G  -5.09
153. C8G A26G C86G U109C  -5.29
154. C8G C70U C80A C94G  -5.61
155. C8G A18U C73G U126G  -5.64
156. C8G C15A G69A C89G  -5.71
157. C8G C20G C34U U112A  -5.8
158. C8A U21A C34G C70A U109G  -5.88
159. C8G A90G G113U G117A G127A  -6.12
160. C8A U33A G42U U112A C123A  -6.39
161. C8G C12G U55G G61U G71A  -6.64
162. C8A U9G A16G A24G G39C G60A C64A U92C G110U G113U A121U C123G U126G  -6.69
163. C8A G47U U78A A83C C98G U112A  -7.02
164. C8A U9G G39C G69A U78C U92G U106A  -7.09
165. C8G G10C G23C G25A G60C C88G G110A  -7.14
166. C8G C34A U55A C70G C104G G110A  -7.2
167. C8G G23U A24U A41C G60U C86G C101A G120A  -7.63
